The values that follow come from patent US20140322162A1.

Experiment [1] addresses H-ferritin binding sites (receptor) on bovine retinal endothelial cell (BREC) homogenate (bovine). The experiment in a line: saturation binding of 125I-rH-ferritin to BREC homogenate, global non-linear one-site fit.
The target of experiment [2] is H-ferritin binding sites (receptor) on rat brain microvessels (rat). The experiment can be described thus: saturation binding of 125I-rH-ferritin to rat brain microvessels, global non-linear one-site fit.

In general, Kd refers to a measure of binding affinity in units of concentration. Higher therefore signals weaker binding. In the case of “recombinant human H-ferritin (from UniProt P02794 1-183) (ligand)”, the Bmax (fmol/mg protein) in experiment [1] turned out to be 466; in experiment [2], 573. Further, the values for the Kd in experiment [1] and in experiment [2] were 2.7 nM and 7.9 nM, respectively.
